Reference: publication PMC11846896, “Phage parasites targeting phage homologous recombinases provide antiviral immunity” (Nature Communications, 2025)
Values belong to the compound of their own block, whether it stands above or below them.

Columns and labels:
Stl2-Sak4_52A complex = target: T1, Stl2-Sak4_52A complex (Staphylococcus phage 52A, UniProt Q4ZAS5); assay: cryo-EM structure of the complex ([…] Å); assay type: binding; details: 2 mM ATPγS, 20 mM Tris pH 7.6, 100 mM NaCl, 1 mM DTT, 37 °C 10 min, Stl2 1:1; site at Sak4_52A protomer interface (Lys41, Thr42, Tyr216 of one; Lys229, Arg231, His232 of the next)
T1 construct: both from E. coli BL21, mixed 1:1; with SaPI2 transcriptional repressor Stl (Staphylococcus aureus)

[1] = system: Stl2-ΔCTD (Staphylococcus aureus pathogenicity island SaPI2); assay: EMSA; details: EMSA: 20 mM Tris-HCl pH 7.0, 100 mM NaCl, 5% glycerol, 50 ng/µl BSA, 1 ng/µl salmon sperm DNA, 5 mM DTT, 2 nM FAM-DNA, room temperature 30 min; Stl2 + 5 mM …
[2] = target: Sak80α, full-length, untagged, co-expressed with Stl2 from pETDuet-1 (phage 80α (Staphylococcus aureus phage)); assay: cryo-EM structure; Stl2-Sak80α complex co-expressed from pETDuet-1 and co-purified, third elution peak of Superose 6, 1.5 mg/ml; D1 symmetry
[3] = target: Sak80αΔCTD (truncated Sak80α with its CTD removed) (phage 80α (Staphylococcus aureus phage)); assay: cryo-EM structure; Sak80αΔCTD at 1.5 mg/ml in 20 mM Tris-HCl pH 7.6, 100 mM NaCl, 1 mM DTT; C18 symmetry
[4] = target: Stl2 (SaPI2-encoded transcriptional repressor Stl), wild type, C-terminally histidine tagged (Staphylococcus aureus (SaPI2)); assay: mass photometry; single proteins; diluted to 50 to 100 nM in 20 mM Tris pH 8.0, 0.5 mM EDTA, 200 mM NaCl, 2 mM DTT; self-association (dimer and large oligomers)

T1 sequence (A0FIL5 entry or part of it): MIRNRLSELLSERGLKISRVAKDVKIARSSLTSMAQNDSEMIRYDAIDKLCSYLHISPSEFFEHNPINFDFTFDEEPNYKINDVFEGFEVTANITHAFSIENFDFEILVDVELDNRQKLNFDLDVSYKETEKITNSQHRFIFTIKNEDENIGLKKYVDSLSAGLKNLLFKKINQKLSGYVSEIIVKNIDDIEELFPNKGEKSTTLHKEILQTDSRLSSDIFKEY
T1 sequence (Q4ZAS5 entry or part of it): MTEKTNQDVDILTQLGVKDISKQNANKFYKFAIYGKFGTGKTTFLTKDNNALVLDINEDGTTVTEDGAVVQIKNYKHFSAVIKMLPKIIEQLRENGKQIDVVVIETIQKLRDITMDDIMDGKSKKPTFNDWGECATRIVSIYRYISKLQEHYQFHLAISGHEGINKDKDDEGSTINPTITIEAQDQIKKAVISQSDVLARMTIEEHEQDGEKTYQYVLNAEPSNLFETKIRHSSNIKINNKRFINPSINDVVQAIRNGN

Compound: Nc1ncnc2c1ncn2[C@@H]1O[C@H](COP(=O)(O)OP(=O)(O)OP(O)(O)=S)[C@@H](O)[C@H]1O [ATPγS]
- cryo-EM structure of the complex (3.35 Å) (Stl2-Sak4_52A complex): The nucleotide ATPγS is boxed and zoomed in on the left-hand side

Compound: SaPI2 IGR (stl-str intergenic region)
- binding signal (fold reduction in affinity vs wild type) [1]: 30

- stoichiometry N [2]: 17
Compound: Sak80α, full-length, untagged, co-expressed with Stl2 from pETDuet-1 (natural protein)

- stoichiometry N [3]: 18
Compound: Sak80αΔCTD (truncated Sak80α with its CTD removed) (domain or fragment)

Compound: Stl2 (SaPI2-encoded transcriptional repressor Stl), wild type, C-terminally histidine tagged (natural protein)
- stoichiometry N [4]: 2
